The target in assay [1] is T1, HIV-1 gp120 monomer, strain HxBc2 (HIV-1, strain HxBc2), P04578. The experiment in a line: SPR. The conditions noted are these: remark: other sources report otherwise.
Assay [2] concerns the target T1, HIV-1 gp120 monomer, strain HxBc2 …. Description: SPR. The following applies: remark: other sources report otherwise. This is another data set of the same source.

Here are results for one molecule from publication PMC8231982.

In general, Kd refers to the equilibrium constant for the complex coming apart. A low value points to tighter binding.

B1: wild-type cyanovirin-N (WT CV–N), P81180 1-101 (natural protein)
chain: LGKFSQTCYNSAIQGSVLTSTCERTNGGYNTSSIDLNSVIENVDGSLKWQPSNFIETCRNTQLAGSSELAAECKTRAQQFVSTKINLDDHIANIDGTLKYE
B1: the Kd is 260 nM in assay [1] and 250 nM in assay [2].
